Assay results from paper PMC7367873, “Dissecting the sequence determinants for dephosphorylation by the catalytic subunits of phosphatases PP1 and PP2A” (Nature Communications, 2020).

Legend:
[1] = system: GFP-14-3-3β; assay: GFP-14-3-3β co-IP with LC-MS/MS, untreated GFP-14-3-3β versus GFP control (14-3-3 interactome); assay type: binding, human; details: pairwise comparison untreated GFP-14-3-3β vs GFP, student's t-test; 3 replicates each; LC-MS/MS label-free quantification
[2] = system: GFP-14-3-3β and its binding proteins; assay: GFP-14-3-3β co-IP with LC-MS/MS label-free quantification, untreated versus PP1c-treated; design: species or system human; details: for Difference (log2), PP1 vs untreated: pairwise comparison PP1 vs untreated, student's t-test, 3 replicates each, LC-MS/MS label-free quantification

| Molecule | Difference (log2), untreated vs GFP [1] [log2] | Difference (log2), PP1 vs untreated [2] [log2] | Difference ([2]; GFP-14-3-3β co-IP, PP1vsUntrted, Perseus raw output, LFQ intensity difference) |
| --- | --- | --- | --- |
| CDC25B (protein, UniProt P30305 1-580, looked up) M-phase inducer phosphatase 2: MEVPQPEPAPGSALSPAGVCGGAQRPGHLPGLLLGSHGLLGSPVRAAASSPVTTLTQTMHDLAGLGSETPKSQVGTLLFRSRSRLTHLSLSRRASESSLSSESSESSDAGLCMDSPSPMDPHMAEQTFEQAIQAASRIIRNEQFAIRRFQSMPVRLLGHSPVLRNITNSQAPDGRRKSEAGSGAASSSGEDKENDGFVFKMPWKPTHPSSTHALAEWASRREAFAQRPSSAPDLMCLSPDRKMEVEELSPLALGRFSLTPAEGDTEEDDGFVDILESDLKDDDAVPPGMESLISAPLVKTLEKEEEKDLVMYSKCQRLFRSPSMPCSVIRPILKRLERPQDRDTPVQNKRRRSVTPPEEQQEAEEPKARVLRSKSLCHDEIENLLDSDHRELIGDYSKAFLLQTVDGKHQDLKYISPETMVALLTGKFSNIVDKFVIVDCRYPYEYEGGHIKTAVNLPLERDAESFLLKSPIAPCSLDKRVILIFHCEFSSERGPRMCRFIRERDRAVNDYPSLYYPEMYILKGGYKEFFPQHPNFCEPQDYRPMNHEAFKDELKTFRLKTRSWAGERSRRELCSRLQDQ | 4.101 | -5.046 | – |
| PPP1R3D (protein, UniProt O95685 1-299, looked up) Protein phosphatase 1 …: MSRGPSSAVLPSALGSRKLGPRSLSCLSDLDGGVALEPRACRPPGSPGRAPPPTPAPSGCDPRLRPIILRRARSLPSSPERRQKAAGAPGAACRPGCSQKLRVRFADALGLELAQVKVFNAGDDPSVPLHVLSRLAINSDLCCSSQDLEFTLHCLVPDFPPPVEAADFGERLQRQLVCLERVTCSDLGISGTVRVCNVAFEKQVAVRYTFSGWRSTHEAVARWRGPAGPEGTEDVFTFGFPVPPFLLELGSRVHFAVRYQVAGAEYWDNNDHRDYSLTCRNHALHMPRGECEESWIHFI | 3.78 | -4.778 | – |
| FAM83G (protein, UniProt A6ND36 2-823, looked up) Protein FAM83G: AFSQVQCLDDNHVNWRSSESKPEFFYSEEQRLALEALVARGRDAFYEVLKRENIRDFLSELELKRILETIEVYDPGSEDPRGTGPSQGPEDNGVGDGEEASGADGVPIEAEPLPSLEYWPQKSDRSIPQLDLGWPDTIAYRGVTRASVYMQPPIDGQAHIKEVVRKMISQAQKVIAVVMDMFTDVDIFKDLLDAGFKRKVAVYIIVDESNVKYFLHMCERACMHLGHLKNLRVRSSGGTEFFTRSATKFKGALAQKFMFVDGDRAVCGSYSFTWSAARTDRNVISVLSGQVVEMFDRQFQELYLMSHSVSLKGIPMEKEPEPEPIVLPSVVPLVPAGTVAKKLVNPKYALVKAKSVDEIAKISSEKQEAKKPLGLKGPALAEHPGELPELLPPIHPGLLHLERANMFEYLPTWVEPDPEPGSDILGYINIIDPNIWNPQPSQMNRIKIRDTSQASAQHQLWKQSQDSRPRPEPCPPPEPSAPQDGVPAENGLPQGDPEPLPPVPKPRTVPVADVLARDSSDIGWVLELPKEEAPQNGTDHRLPRMAGPGHAPLQRQLSVTQDDPESLGVGLPNGLDGVEEEDDDDYVTLSDQDSHSGSSGRGPGPRRPSVASSVSEEYFEVREHSVPLRRRHSEQVANGPTPPPRRQLSAPHITRGTFVGPQGGSPWAQSRGREEADALKRMQAQRSTDKEAQGQQFHHHRVPASGTRDKDGFPGPPRYRSAADSVQSSTRNAGPAMAGPHHWQAKGGQVPRLLPDPGSPRLAQNARPMTDGRATEEHPSPFGIPYSKLSQSKHLKARTGGSQWASSDSKRRAQAPRDRKDP | 4.695 | -4.783 | -4.783 |
| TP53BP2 (protein, UniProt Q13625 1-1128, looked up) Apoptosis-stimulating of p53 …: MMPMFLTVYLSNNEQHFTEVPVTPETICRDVVDLCKEPGESDCHLAEVWCGSERPVADNERMFDVLQRFGSQRNEVRFFLRHERPPGRDIVSGPRSQDPSLKRNGVKVPGEYRRKENGVNSPRMDLTLAELQEMASRQQQQIEAQQQLLATKEQRLKFLKQQDQRQQQQVAEQEKLKRLKEIAENQEAKLKKVRALKGHVEQKRLSNGKLVEEIEQMNNLFQQKQRELVLAVSKVEELTRQLEMLKNGRIDSHHDNQSAVAELDRLYKELQLRNKLNQEQNAKLQQQRECLNKRNSEVAVMDKRVNELRDRLWKKKAALQQKENLPVSSDGNLPQQAASAPSRVAAVGPYIQSSTMPRMPSRPELLVKPALPDGSLVIQASEGPMKIQTLPNMRSGAASQTKGSKIHPVGPDWSPSNADLFPSQGSASVPQSTGNALDQVDDGEVPLREKEKKVRPFSMFDAVDQSNAPPSFGTLRKNQSSEDILRDAQVANKNVAKVPPPVPTKPKQINLPYFGQTNQPPSDIKPDGSSQQLSTVVPSMGTKPKPAGQQPRVLLSPSIPSVGQDQTLSPGSKQESPPAAAVRPFTPQPSKDTLLPPFRKPQTVAASSIYSMYTQQQAPGKNFQQAVQSALTKTHTRGPHFSSVYGKPVIAAAQNQQQHPENIYSNSQGKPGSPEPETEPVSSVQENHENERIPRPLSPTKLLPFLSNPYRNQSDADLEALRKKLSNAPRPLKKRSSITEPEGPNGPNIQKLLYQRTTIAAMETISVPSYPSKSASVTASSESPVEIQNPYLHVEPEKEVVSLVPESLSPEDVGNASTENSDMPAPSPGLDYEPEGVPDNSPNLQNNPEEPNPEAPHVLDVYLEEYPPYPPPPYPSGEPEGPGEDSVSMRPPEITGQVSLPPGKRTNLRKTGSERIAHGMRVKFNPLALLLDSSLEGEFDLVQRIIYEVDDPSLPNDEGITALHNAVCAGHTEIVKFLVQFGVNVNAADSDGWTPLHCAASCNNVQVCKFLVESGAAVFAMTYSDMQTAADKCEEMEEGYTQCSQFLYGVQEKMGIMNKGVIYALWDYEPQNDDELPMKEGDCMTIIHREDEDEIEWWWARLNDKEGYVPRNLLGLYPRIKPRQRSLA | 3.807 | -4.694 | – |
| MTMR3 (protein, UniProt Q13615 1-1198, looked up) Phosphatidylinositol-3,5-bisph …: MDEETRHSLECIQANQIFPRKQLIREDENLQVPFLELHGESTEFVGRAEDAIIALSNYRLHIKFKESLVNVPLQLIESVECRDIFQLHLTCKDCKVIRCQFSTFEQCQEWLKRLNNAIRPPAKIEDLFSFAYHAWCMEVYASEKEQHGDLCRPGEHVTSRFKNEVERMGFDMNNAWRISNINEKYKLCGSYPQELIVPAWITDKELESVSSFRSWKRIPAVIYRHQSNGAVIARCGQPEVSWWGWRNADDEHLVQSVAKACASDSRSSGSKLSTRNTSRDFPNGGDLSDVEFDSSLSNASGAESLAIQPQKLLILDARSYAAAVANRAKGGGCECPEYYPNCEVVFMGMANIHSIRRSFQSLRLLCTQMPDPGNWLSALESTKWLHHLSVLLKSALLVVHAVDQDQRPVLVHCSDGWDRTPQIVALAKLLLDPYYRTIEGFQVLVEMEWLDFGHKFADRCGHGENSDDLNERCPVFLQWLDCVHQLQRQFPCSFEFNEAFLVKLVQHTYSCLFGTFLCNNAKERGEKHTQERTCSVWSLLRAGNKAFKNLLYSSQSEAVLYPVCHVRNLMLWSAVYLPCPSPTTPVDDSCAPYPAPGTSPDDPPLSRLPKTRSYDNLTTACDNTVPLASRRCSDPSLNEKWQEHRRSLELSSLAGPGEDPLSADSLGKPTRVPGGAELSVAAGVAEGQMENILQEATKEESGVEEPAHRAGIEIQEGKEDPLLEKESRRKTPEASAIGLHQDPELGDAALRSHLDMSWPLFSQGISEQQSGLSVLLSSLQVPPRGEDSLEVPVEQFRIEEIAEGREEAVLPIPVDAKVGYGTSQSCSLLPSQVPFETRGPNVDSSTDMLVEDKVKSVSGPQGHHRSCLVNSGKDRLPQTMEPSPSETSLVERPQVGSVVHRTSLGSTLSLTRSPCALPLAECKEGLVCNGAPETENRASEQPPGLSTLQMYPTPNGHCANGEAGRSKDSLSRQLSAMSCSSAHLHSRNLHHKWLHSHSGRPSATSSPDQPSRSHLDDDGMSVYTDTIQQRLRQIESGHQQEVETLKKQVQELKSRLESQYLTSSLHFNGDFGDEVTSIPDSESNLDQNCLSRCSTEIFSEASWEQVDKQDTEMTRWLPDHLAAHCYACDSAFWLASRKHHCRNCGNVFCSSCCNQKVPVPSQQLFEPSRVCKSCYSSLHPTSSSIDLELDKPIAATSN | 4.385 | -4.593 | – |
| KIF23 (protein, UniProt Q02241 1-960, looked up) Kinesin-like protein KIF23: MKSARAKTPRKPTVKKGSQTNLKDPVGVYCRVRPLGFPDQECCIEVINNTTVQLHTPEGYRLNRNGDYKETQYSFKQVFGTHTTQKELFDVVANPLVNDLIHGKNGLLFTYGVTGSGKTHTMTGSPGEGGLLPRCLDMIFNSIGSFQAKRYVFKSNDRNSMDIQCEVDALLERQKREAMPNPKTSSSKRQVDPEFADMITVQEFCKAEEVDEDSVYGVFVSYIEIYNNYIYDLLEEVPFDPIKPKPPQSKLLREDKNHNMYVAGCTEVEVKSTEEAFEVFWRGQKKRRIANTHLNRESSRSHSVFNIKLVQAPLDADGDNVLQEKEQITISQLSLVDLAGSERTNRTRAEGNRLREAGNINQSLMTLRTCMDVLRENQMYGTNKMVPYRDSKLTHLFKNYFDGEGKVRMIVCVNPKAEDYEENLQVMRFAEVTQEVEVARPVDKAICGLTPGRRYRNQPRGPVGNEPLVTDVVLQSFPPLPSCEILDINDEQTLPRLIEALEKRHNLRQMMIDEFNKQSNAFKALLQEFDNAVLSKENHMQGKLNEKEKMISGQKLEIERLEKKNKTLEYKIEILEKTTTIYEEDKRNLQQELETQNQKLQRQFSDKRRLEARLQGMVTETTMKWEKECERRVAAKQLEMQNKLWVKDEKLKQLKAIVTEPKTEKPERPSRERDREKVTQRSVSPSPVPLSSNYIAQISNGQQLMSQPQLHRRSNSCSSISVASCISEWEQKIPTYNTPLKVTSIARRRQQEPGQSKTCIVSDRRRGMYWTEGREVVPTFRNEIEIEEDHCGRLLFQPDQNAPPIRLRHRRSRSAGDRWVDHKPASNMQTETVMQPHVPHAITVSVANEKALAKCEKYMLTHQELASDGEIETKLIKGDIYKTRGGGQSVQFTDIETLKQESPNGSRKRRSSTVAPAQPDGAESEWTDVETRCSVAVEMRAGSQLGPGYQHHAQPKRKKP | 6.386 | -4.537 | – |
